What was measured:
yeast Smt3 (Smt3-6xHis) [1] = target: T1, yeast Smt3 (Smt3-6xHis) (S. cerevisiae, UniProt Q12306 1-101 = SUMO, U-[13C,15N] labelled in the NMR experiments); assay: ITC; Smt3 150 uM
T1 chain: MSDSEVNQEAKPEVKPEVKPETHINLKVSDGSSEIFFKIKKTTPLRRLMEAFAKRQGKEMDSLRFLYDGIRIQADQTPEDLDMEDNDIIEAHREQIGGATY

yeast Smt3 (Smt3-6xHis) [2] = target: T1, yeast Smt3 (Smt3-6xHis); assay: ITC; Smt3 300 uM

B1: synthetic Mre11-SIM3 peptide, wild type (peptide)
chain: ENDIIMVSTDE
Kd (yeast Smt3 (Smt3-6xHis) [1]): 30.2 µM | Kd (yeast Smt3 (Smt3-6xHis) [2]): 15.3 µM

Reference: publication PMC13233820 (2026)
